Our source for the response values is paper PMC7110144.

This assay concerns the target T1, CENP-A-GFP-LacI (in S2 cells), Q9V6Q2.
T1 chain: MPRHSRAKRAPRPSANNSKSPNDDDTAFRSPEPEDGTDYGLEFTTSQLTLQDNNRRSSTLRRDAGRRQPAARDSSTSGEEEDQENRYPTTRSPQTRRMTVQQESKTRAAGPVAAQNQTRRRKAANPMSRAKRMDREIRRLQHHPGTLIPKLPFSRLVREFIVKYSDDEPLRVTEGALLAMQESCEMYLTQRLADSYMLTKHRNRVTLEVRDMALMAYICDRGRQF
Description: LacO/LacI tethering assay in Drosophila S2 cells (fluorescence intensity of CAL1-V5 at the tethering site). As to conditions: chain shown with the change;; parent: est. 1800; read off a plot.

B1: CAL1WT-V5 (in S2 cells), Q9VEN2 W22R; F29R (protein)
chain: MANAVVDEETLEAMVYERSKARSSKMADRASLEDGMEIDVAEFDNLFHGEDEDPDLDDVAKEAVEDNVPDEAKLEMGHINATSVTELTLILCANEDNEAKAEIEEILNQTVPVVEEHKRKWREAGLDRILDTFDEKQIEHHVGRWMRRHNSVYLEASPPKYLPPHHNSISDESDESMHSIDTARYIQQSRRRNAHMTNKNMTTIKMYRKHSHKRDELRAKYAYGDEQEHRHHMQAVLLRRRERERQLAYLASTPMQCVYSSGHHMRRKNLRKRRINSWMFDSASSSEEDTSFGGCDCHSCRRHYALSRSVYQSCPYGRGQREYHHRQMASRTMHTMRRQHTFDMEMDLRPRLPENECSCCNSDRLCSNVIHIANSSTEEWVVENRSNHLTQETQEKTRKQKHQPMDARKVSHQPVCSKGHEQKPLSSKATSVSKLVLSKEKYMQMFDSESSDEDNALAKKGLLCCSDKKKGMTFPTPNAAGKITHPTSSAKKAIRKEARPNGLAQIQEEGPTATNSPIESTYLPVAHMKSVSIDGSSGTSATFESPAKKAPKRGIRETSPLNGNELQQLISTIPIADEKASSLMEKVDNCIGRESFDDRNKDFMHMENSSTKTAVEKSTKQKRVSGKKSEIPKSIITNNEILEKNSTETLSEKQVAAKAKKQSVRKTGATGKPSTSRLKKSEKTKTTSSVTSTSKLEQVREEESDVSSEVLAKPKPQCSTTASILKQGGDGASNSEDDLQIALAMSKATYKEEQQKRKKTKREPSNKQPQSPAEKSMTVFNNQSVACNSTALANDTACYRVLPKRRGVKRAAAVSTTEEKTATNSSSSPTSSLEEMGSPTGGDPDCTVVTSTTGCEPPASERQEIPATIKITKRGILLHSPSAPEGASFTLTEQGLGKIIGERWARKYLKYHIGSRSFDSRHSVYYQPTPQLAAALSAPQDAQNIGNISGSSASDDDIFEQINRYGTVYSILENNSGDK
On to B1, for which the response is 120 a.u.

B2: CAL1WT-V5 (in S2 cells), Q9VEN2 F43R (protein)
chain: MANAVVDEETLEAMVYERSKAWSSKMADFASLEDGMEIDVAERDNLFHGEDEDPDLDDVAKEAVEDNVPDEAKLEMGHINATSVTELTLILCANEDNEAKAEIEEILNQTVPVVEEHKRKWREAGLDRILDTFDEKQIEHHVGRWMRRHNSVYLEASPPKYLPPHHNSISDESDESMHSIDTARYIQQSRRRNAHMTNKNMTTIKMYRKHSHKRDELRAKYAYGDEQEHRHHMQAVLLRRRERERQLAYLASTPMQCVYSSGHHMRRKNLRKRRINSWMFDSASSSEEDTSFGGCDCHSCRRHYALSRSVYQSCPYGRGQREYHHRQMASRTMHTMRRQHTFDMEMDLRPRLPENECSCCNSDRLCSNVIHIANSSTEEWVVENRSNHLTQETQEKTRKQKHQPMDARKVSHQPVCSKGHEQKPLSSKATSVSKLVLSKEKYMQMFDSESSDEDNALAKKGLLCCSDKKKGMTFPTPNAAGKITHPTSSAKKAIRKEARPNGLAQIQEEGPTATNSPIESTYLPVAHMKSVSIDGSSGTSATFESPAKKAPKRGIRETSPLNGNELQQLISTIPIADEKASSLMEKVDNCIGRESFDDRNKDFMHMENSSTKTAVEKSTKQKRVSGKKSEIPKSIITNNEILEKNSTETLSEKQVAAKAKKQSVRKTGATGKPSTSRLKKSEKTKTTSSVTSTSKLEQVREEESDVSSEVLAKPKPQCSTTASILKQGGDGASNSEDDLQIALAMSKATYKEEQQKRKKTKREPSNKQPQSPAEKSMTVFNNQSVACNSTALANDTACYRVLPKRRGVKRAAAVSTTEEKTATNSSSSPTSSLEEMGSPTGGDPDCTVVTSTTGCEPPASERQEIPATIKITKRGILLHSPSAPEGASFTLTEQGLGKIIGERWARKYLKYHIGSRSFDSRHSVYYQPTPQLAAALSAPQDAQNIGNISGSSASDDDIFEQINRYGTVYSILENNSGDK
For the molecule B2, the response worked out at 590 a.u.
